Reference: paper PMC2831313

How the values were obtained:
[1] = target: HapC(CCS) (Aspergillus nidulans); experiment: SDS-PAGE without reducing agent
[2] = target: HapC(SCS) (Aspergillus nidulans); experiment: SDS-PAGE without reducing agent
[3] = target: N-biotinylated HapB (Aspergillus nidulans); experiment: SPR
[4] = target: HapC(SSC) (Aspergillus nidulans); experiment: SDS-PAGE without reducing agent
[5] = target: oxidized HapC (treated with diamide or H2O2) (Aspergillus nidulans); experiment: SDS-PAGE under non-reducing conditions
[6] = target: HapC with cysteine 78 exchanged to serine (Aspergillus nidulans); experiment: SDS-PAGE without reducing agent
[7] = target: oxidized HapC(CCS) (treated with diamide or H2O2) (Aspergillus nidulans); experiment: SDS-PAGE under non-reducing conditions
[8] = target: HapC(CSS) (Aspergillus nidulans); experiment: SDS-PAGE without reducing agent
[9] = target: HapC with cysteine 74 exchanged to serine (Aspergillus nidulans); experiment: SDS-PAGE without reducing agent

HapC(CCS) (natural protein) gave a stoichiometry N [1] of 2.
Substance HapC(SCS) (natural protein) has a stoichiometry N [2] of 2.
For “heterodimer of HapC with cysteine 74 exchanged to serine and HapE (complex)”, the HapB binding affinity relative to the HapC/HapE heterodimer [3] was 50%.
With HapC(SSC) (natural protein) the stoichiometry N [4] was 2.
For “heterodimer of HapC with cysteine 78 exchanged to serine and HapE (complex)”, the HapB binding affinity relative to the HapC/HapE heterodimer [3] was 50%.
“heterodimer composed of the HapC(CCS) mutant and HapE (complex)” gave a Kd [3] of 0.0368 µM.
In the case of “oxidized HapC (treated with diamide or H2O2) (natural protein)”, the stoichiometry N [5] is reported as 2.
Substance “HapC with cysteine 78 exchanged to serine (natural protein)” has a stoichiometry N [6] of 2.
Substance “oxidized HapC(CCS) (treated with diamide or H2O2) (natural protein)” has a stoichiometry N [7] of 2.
With HapC(CSS) (natural protein) the stoichiometry N [8] was 2.
“HapC with cysteine 74 exchanged to serine (natural protein)” was tested, and the stoichiometry N [9] was 2.
